Measurements from patent US20070197446A1, “MHC binding peptides and their uses” (ProImmune Limited, priority 2006, published 2007).
Like-named read-outs stand apart in the source and are kept apart here.

How the values were obtained:
HLA-B*3501 [1] = assay: MHC-peptide assembly over 24 h, ELISA with conformational antibody; reading minus pass/fail control
HLA-B*3501 [2] = molecular target: HLA-B*3501

Row | Binder | ELISA (Absorption-Pass/Fail Control) (HLA-A*0201) | ELISA (Absorption-Pass/Fail Control) (HLA-B*0801) | other results
1 | HPVGEADYFEY (modifications not checked) [… (SEQ ID NO: 8)] | – | – | ELISA (Absorption-Pass/Fail Control) (HLA-B*3501 [1]): 0.55 absorption
2 | KSDQICIGY (modifications not checked) [… (SEQ ID NO: 9)] | – | – | ELISA (Absorption-Pass/Fail Control) (HLA-A*0101): 0.47 absorption; ELISA (Absorption-Pass/Fail Control) (HLA-A*0301): 0.05 absorption
3 | FINVPEWSY (modifications not checked) [… (SEQ ID NO: 10)] | – | – | ELISA (Absorption-Pass/Fail Control) (HLA-A*0101): 0.16 absorption; ELISA (Absorption-Pass/Fail Control) (HLA-B*3501 [2]): 0.57 absorption
4 | VLLFAIVSL (modifications not checked) [… (SEQ ID NO: 11)] | 0.47 absorption | – | –
5 | LLFAIVSLV (modifications not checked) [… (SEQ ID NO: 12)] | 1.06 absorption | – | –
6 | FAIVSLVKS (modifications not checked) [… (SEQ ID NO: 13)] | 0.07 absorption | – | –
7 | AIVSLVKSD (modifications not checked) [… (SEQ ID NO: 14)] | 0.43 absorption | – | –
8 | IVSLVKSDQ (modifications not checked) [… (SEQ ID NO: 15)] | 0.04 absorption | – | –
9 | SLVKSDQIC (modifications not checked) [… (SEQ ID NO: 16)] | 0.09 absorption | – | ELISA (Absorption-Pass/Fail Control) (HLA-B*3501 [2]): -0.03 absorption
10 | HANNSTEQV (modifications not checked) [… (SEQ ID NO: 17)] | 0.43 absorption | – | ELISA (Absorption-Pass/Fail Control) (HLA-B*3501 [2]): 0.43 absorption
11 | TIMEKNVTV (modifications not checked) [… (SEQ ID NO: 18)] | 0.99 absorption | 0.8 absorption | ELISA (Absorption-Pass/Fail Control) (HLA-B*0702): 0 absorption
12 | IMEKNVTVT (modifications not checked) [… (SEQ ID NO: 19)] | 0.02 absorption | – | –
13 | MEKNVTVTH (modifications not checked) [… (SEQ ID NO: 20)] | -0.02 absorption | – | –
14 | AQDILEKKH (modifications not checked) [… (SEQ ID NO: 21)] | 0.15 absorption | – | –
15 | KLCDLDGVK (modifications not checked) [… (SEQ ID NO: 22)] | 0.2 absorption | – | ELISA (Absorption-Pass/Fail Control) (HLA-A*0301): 1.16 absorption
16 | LILRDCSVA (modifications not checked) [… (SEQ ID NO: 23)] | 0.57 absorption | 0.07 absorption | –
17 | PMCDEFINV (modifications not checked) [… (SEQ ID NO: 24)] | 0.98 absorption | – | –

Row | Binder | ELISA (Absorption-Pass/Fail Control) (HLA-A*0201) | ELISA (Absorption-Pass/Fail Control) (HLA-B*0801) | other results
18 | NVPEWSYIV (modifications not checked) [… (SEQ ID NO: 25)] | 1.03 absorption | – | –
19 | NVTVTHAQD (modifications not checked) [… (SEQ ID NO: 27)] | – | 0.08 absorption | ELISA (Absorption-Pass/Fail Control) (HLA-A*0301): -0.04 absorption
20 | ILEKKHNGK (modifications not checked) [… (SEQ ID NO: 28)] | – | 0.95 absorption | ELISA (Absorption-Pass/Fail Control) (HLA-A*0301): -0.01 absorption
21 | LVKSDQICI (modifications not checked) [… (SEQ ID NO: 29)] | – | – | ELISA (Absorption-Pass/Fail Control) (HLA-B*0702): -0.06 absorption; ELISA (Absorption-Pass/Fail Control) (HLA-B*3501 [2]): 0.04 absorption
22 | ILRDCSVAG (modifications not checked) [… (SEQ ID NO: 30)] | – | – | ELISA (Absorption-Pass/Fail Control) (HLA-B*0702): 0.03 absorption
23 | VSLVKSDQI (modifications not checked) [… (SEQ ID NO: 31)] | – | 0.36 absorption | –
24 | DTIMEKNVT (modifications not checked) [… (SEQ ID NO: 32)] | – | 0.08 absorption | –
25 | VTHAQDILE (modifications not checked) [… (SEQ ID NO: 33)] | – | 0.31 absorption | –
26 | DILEKKHNG (modifications not checked) [… (SEQ ID NO: 34)] | – | 0.53 absorption | –
27 | KPLILRDCS (modifications not checked) [… (SEQ ID NO: 35)] | – | 0.1 absorption | –
28 | PLILRDCSV (modifications not checked) [… (SEQ ID NO: 36)] | – | 0.65 absorption | –
29 | VAGWLLGNP (modifications not checked) [… (SEQ ID NO: 37)] | – | 0.04 absorption | –
30 | WLLGNPMCD (modifications not checked) [… (SEQ ID NO: 38)] | – | 0.03 absorption | –
31 | GNPMCDEFI (modifications not checked) [… (SEQ ID NO: 39)] | – | 0.04 absorption | –
32 | LFAIVSLVK (modifications not checked) [… (SEQ ID NO: 40)] | – | – | ELISA (Absorption-Pass/Fail Control) (HLA-B*3501 [2]): 0.1 absorption
33 | AGWLLGNPM (modifications not checked) [… (SEQ ID NO: 42)] | – | – | ELISA (Absorption-Pass/Fail Control) (HLA-B*3501 [2]): -0.06 absorption
34 | LGNPMCDEF (modifications not checked) [… (SEQ ID NO: 43)] | – | – | ELISA (Absorption-Pass/Fail Control) (HLA-B*3501 [2]): 0.35 absorption
